The numbers were not newly measured in PMC5914118, “Exploiting the Concept of Multivalency with ^68Ga- and ^89Zr-Labelled Fusarinine C-Minigastrin Bioconjugates for Targeting CCK2R Expression” (Contrast Media & Molecular Imaging, 2018), which cites them from elsewhere.

This data set concerns the target T1, human CCK2R (A431-CCK2R cells) (Homo sapiens, UniProt P32239).
T1 construct: expressed in transfected cells; host or cells: A431 human epidermoid carcinoma cells, stably transfected (plasmid pCR3.1); gift from Aloj
T1 sequence (P32239 1-447): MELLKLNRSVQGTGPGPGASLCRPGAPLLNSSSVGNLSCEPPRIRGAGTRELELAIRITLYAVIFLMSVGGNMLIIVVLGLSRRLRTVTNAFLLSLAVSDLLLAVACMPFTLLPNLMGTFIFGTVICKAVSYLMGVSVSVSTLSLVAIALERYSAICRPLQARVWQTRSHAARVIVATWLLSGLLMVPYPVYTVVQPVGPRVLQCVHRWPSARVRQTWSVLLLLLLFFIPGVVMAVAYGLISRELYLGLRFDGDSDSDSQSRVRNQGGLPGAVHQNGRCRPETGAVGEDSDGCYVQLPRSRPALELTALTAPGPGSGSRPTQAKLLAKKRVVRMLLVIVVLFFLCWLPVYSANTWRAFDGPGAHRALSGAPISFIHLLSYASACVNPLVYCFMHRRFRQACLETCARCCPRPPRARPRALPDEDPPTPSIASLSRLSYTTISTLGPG
Also on record: method as in PMID 28462989. To be noted: reference peptide, whole A431-CCK2R cells; cited from earlier work.

Turning to “DOTA-MG11: reference peptide: DOTA-conjugated minigastrin analogue MG11 (EAYGWMDF; synthetic human minigastrin analogue)”, the IC50 is 9.5 ± 0.5 nM.

What is called IC50 is the point on the concentration scale where inhibition reaches its midpoint.
